Laboratory results as given in the supplement of paper PMC11316812.
± gives the standard deviation of the averaged measurements.

What was measured:
[1] = tested on: hTERT-HMEC; assay: percentage of EdU-negative (G0-arrested) nuclei per well, 72 h; higher = more G0 arrest; settings: reference: sequence is the full UniProt precursor, the tested protein was the secreted form or ectodomain
[2] = tested on: MCF7; assay: as above; settings: reference: sequence is the full UniProt precursor, the tested protein was the secreted form or ectodomain
[3] = protein concentration 0.0225 µM
[4] = protein concentration 0.021155 µM
[5] = protein concentration 0.21155 µM
[6] = protein concentration 0.01125 µM
[7] = protein concentration 0.1125 µM
[8] = protein concentration 0.0257143 µM
[9] = protein concentration 0.257143 µM
[10] = protein concentration 0.0185 µM
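Also: secreted proteins added to cultured cells, EdU pulse at the end, nuclei found by Hoechst imaging, EdU status from nuclear versus surrounding ring intensity ratio, PBS as neutral control.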

MSNTQAERSIIGMIDMFHKYTRRDDKIEKPSLLTMMKENFPNFLSACDKKGTNYLADVFEKKDKNEDKKIDFSEFLSLLGDIATDYHKQSHGAAPCSGGSQ
percentage of EdU-negative [1, 3]: 5.43 ± 0.67% | percentage of EdU-negative ([1]; protein concentration 0.225 µM): 5.53 ± 0.45% | percentage of EdU-negative [2, 3]: 23.5 ± 2.3% | percentage of EdU-negative ([2]; protein concentration 0.225 µM): 26.5 ± 2.3%

MSRQLLPVLLLLLLRASCPWGQEQGARSPSEEPPEEEIPKEDGILVLSRHTLGLALREHPALLVEFYAPWCGHCQALAPEYSKAAAVLAAESMVVTLAKVDGPAQRELAEEFGVTEYPTLKFFRNGNRTHPEEYTGPRDAEGIAEWLRRRVGPSAMRLEDEAAAQALIGGRDLVVIGFFQDLQDEDVATFLALAQDALDMTFGLTDRPRLFQQFGLTKDTVVLFKKFDEGRADFPVDEELGLDLGDLSRFLVTHSMRLVTEFNSQTSAKIFAARILNHLLLFVNQTLAAHRELLAGFGEAAPRFRGQVLFVVVDVAADNEHVLQYFGLKAEAAPTLRLVNLETTKKYAPVDGGPVTAASITAFCHAVLNGQVKPYLLSQEIPPDWDQRPVKTLVGKNFEQVAFDETKNVFVKFYAPWCTHCKEMAPAWEALAEKYQDHEDIIIAELDATANELDAFAVHGFPTLKYFPAGPGRKVIEYKSTRDLETFSKFLDNGGVLPTEEPPEEPAAPFPEPPANSTMGSKEEL
percentage of EdU-negative [1, 4]: 5.52 ± 0.95% | percentage of EdU-negative [1, 5]: 5.36 ± 0.59% | percentage of EdU-negative [2, 4]: 34 ± 1.9% | percentage of EdU-negative [2, 5]: 26.76 ± 0.05%

MAPARAGCCPLLLLLLGLWVAEVLVRAKPKDMTSSQWFKTQHVQPSPQACNSAMSIINKYTERCKDLNTFLHEPFSSVAITCQTPNIACKNSCKNCHQSHGPMSLTMGELTSGKYPNCRYKEKHLNTPYIVACDPPQQGDPGYPLVPVHLDKVV [Q8TDE3]
percentage of EdU-negative [1, 3]: 5.33 ± 0.52% | percentage of EdU-negative ([1]; protein concentration 0.225 µM): 5.09 ± 1.2% | percentage of EdU-negative [2, 3]: 28.2 ± 0.91% | percentage of EdU-negative ([2]; protein concentration 0.225 µM): 27.5 ± 4.3%

MSSFGYRTLTVALFTLICCPGSDEKVFEVHVRPKKLAVEPKGSLEVNCSTTCNQPEVGGLETSLDKILLDEQAQWKHYLVSNISHDTVLQCHFTCSGKQESMNSNVSVYQPPRQVILTLQPTLVAVGKSFTIECRVPTVEPLDSLTLFLFRGNETLHYETFGKAAPAPQEATATFNSTADREDGHRNFSCLAVLDLMSRGGNIFHKHSAPKMLEIYEPVSDSQMVIIVTVVSVLLSLFVTSVLLCFIFGQHLRQQRMGTYGVRAAWRRLPQAFRP
percentage of EdU-negative [1, 3]: 5.54 ± 0.21% | percentage of EdU-negative ([1]; protein concentration 0.225 µM): 6.02 ± 0.093% | percentage of EdU-negative [2, 3]: 24.9 ± 0.91% | percentage of EdU-negative ([2]; protein concentration 0.225 µM): 27.28 ± 0.18%

MIFLTALPLFWIMISASRGGHWGAWMPSSISAFEGTCVSIPCRFDFPDELRPAVVHGVWYFNSPYPKNYPPVVFKSRTQVVHESFQGRSRLLGDLGLRNCTLLLSNVSPELGGKYYFRGDLGGYNQYTFSEHSVLDIVNTPNIVVPPEVVAGTEVEVSCMVPDNCPELRPELSWLGHEGLGEPAVLGRLREDEGTWVQVSLLHFVPTREANGHRLGCQASFPNTTLQFEGYASMDVKYPPVIVEMNSSVEAIEGSHVSLLCGADSNPPPLLTWMRDGTVLREAVAESLLLELEEVTPAEDGVYACLAENAYGQDNRTVGLSVMYAPWKPTVNGTMVAVEGETVSILCSTQSNPDPILTIFKEKQILSTVIYESELQLELPAVSPEDDGEYWCVAENQYGQRATAFNLSVEFAPVLLLESHCAAARDTVQCLCVVKSNPEPSVAFELPSRNVTVNESEREFVYSERSGLVLTSILTLRGQAQAPPRVICTARNLYGAKSLELPFQGAHRLMWAKIGPVGAVVAFAILIAIVCYITQTRRKKNVTESPSFSAGDNPPVLFSSDFRISGAPEKYESERRLGSERRLLGLRGEPPELDLSYSHSDLGKRPTKDSYTLTEELAEYAEIRVK
percentage of EdU-negative [1, 6]: 5.66 ± 0.36% | percentage of EdU-negative [1, 7]: 6.55 ± 0.84% | percentage of EdU-negative [2, 6]: 28.5 ± 0.33% | percentage of EdU-negative [2, 7]: 28.73 ± 0.11%

MKSLTWILGLWALAACFTPGESQRGPRGPYPPGPLAPPQPFGPGFVPPPPPPPYGPGRIPPPPPAPYGPGIFPPPPPQP
percentage of EdU-negative [1, 8]: 5.18 ± 0.72% | percentage of EdU-negative [1, 9]: 6.25 ± 0.39% | percentage of EdU-negative [2, 8]: 26.1 ± 0.69% | percentage of EdU-negative [2, 9]: 29.6 ± 2.1%

MAALLLGAVLLVAQPQLVPSRPAELGQQELLRKAGTLQDDVRDGVAPNGSAQQLPQTIIIGVRKGGTRALLEMLSLHPDVAAAENEVHFFDWEEHYSHGLGWYLSQMPFSWPHQLTVEKTPAYFTSPKVPERVYSMNPSIRLLLILRDPSERVLSDYTQVFYNHMQKHKPYPSIEEFLVRDGRLNVDYKALNRSLYHVHMQNWLRFFPLRHIHIVDGDRLIRDPFPEIQKVERFLKLSPQINASNFYFNKTKGFYCLRDSGRDRCLHESKGRAHPQVDPKLLNKLHEYFHEPNKKFFELVGRTFDWH
percentage of EdU-negative [1, 10]: 4.41 ± 0.35% | percentage of EdU-negative ([1]; protein concentration 0.185 µM): 11.85 ± 0.08% | percentage of EdU-negative [2, 10]: 21.85 ± 0.18% | percentage of EdU-negative ([2]; protein concentration 0.185 µM): 26.7 ± 1.6%
